Source: publication PMC6349404

target: recombinant human Osteolectin (human) (UniProt Q9Y240); experiment: ELISA; microtiter well binding assay; plates coated with 10 nM recombinant human Osteolectin, Pro-Collagen 1α or BSA overnight at 4°C, blocked with 10 mg/ml BSA; 6xHis tagged integrins in TBS (50 mM Tris-Cl pH 7.5, 150 mM NaCl) with 1 mM MnCl2; bound integrin detected with anti-His tag antibody and HRP secondary, OD 450 nm
Sequence (Q9Y240 22-323): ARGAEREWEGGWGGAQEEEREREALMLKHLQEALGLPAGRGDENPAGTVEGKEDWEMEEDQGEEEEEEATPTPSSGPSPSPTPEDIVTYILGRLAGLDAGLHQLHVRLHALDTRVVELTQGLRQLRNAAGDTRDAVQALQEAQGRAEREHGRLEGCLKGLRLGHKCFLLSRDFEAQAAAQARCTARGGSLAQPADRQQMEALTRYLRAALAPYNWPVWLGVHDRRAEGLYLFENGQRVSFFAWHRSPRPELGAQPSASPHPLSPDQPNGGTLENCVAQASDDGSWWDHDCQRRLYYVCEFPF

Kd, > 100 nM:
recombinant human integrin αIIbβ3 (from UniProt P08514 32-1039; P05106 27-718) (complex)
recombinant human integrin αVβ1 (from UniProt P06756 31-1048; P05556 21-728) (complex)
recombinant human integrin αVβ3 (from UniProt P06756 31-1048; P05106 27-718) (complex)
